From article PMC10691555 come the findings set out here.

Experiment [1] addresses Her2 on SK-BR-3 cells (human (endogenous in SK-BR-3)) (UniProt P04626). As to the kind of experiment: flow cytometry on cells.
Experiment [2] deals with recombinant Her2, biotinylated (UniProt P04626). As to the kind of experiment: plate binding titration of dye-labelled affibody.
Experiment [3] shares this target. As to the kind of experiment: SPR.

“Her2-specific affibody ZHer2:2891 conjugated with AlexaFluor 488nm dye (designed binder)”: the figures for the equilibrium dissociation constant (Kd) in experiment [1], in experiment [2] and in experiment [3] were 7.12 nM, 11 nM and 0.115 nM, respectively.
